For assay [1], the target named is HLA-A*02:01. The assay can be described thus: IEDB peptide-MHC binding, purified MHC/competitive/fluorescence; ≥ and ≤ were set here for values at or beyond the usual limits of such assays.
The target in assay [2] is HLA-A*02:01. Nature of the assay: IEDB peptide-MHC binding, purified MHC/direct/fluorescence; filed as Kd, often an IC50 or EC50 that approximates it; ≥ and ≤ were set here for values at or beyond the usual limits of such assays.
Another assay addresses HLA-A*69:01. The assay is described as above.
A further assay addresses HLA-B*07:02. The description is as above.
In another assay the target is HLA-A*32:01. The assay can be described thus: IEDB peptide-MHC binding, purified MHC/competitive/radioactivity; filed as Kd, often an IC50 or EC50 that approximates it; ≥ and ≤ were set here for values at or beyond the usual limits of such assays.
The target in assay [3] is HLA-A*01:01. The assay can be described thus: IEDB peptide-MHC binding, purified MHC/direct/fluorescence; filed as Kd, often an IC50 or EC50 that approximates it; ≥ and ≤ were set here for values at or beyond the usual limits of such assays.
A further assay has as its target HLA-A*03:01. The assay is described as above.
For another assay, the target named is HLA-A*26:01. Nature of the assay: IEDB peptide-MHC binding, purified MHC/competitive/radioactivity; filed as Kd, often an IC50 or EC50 that approximates it; ≥ and ≤ were set here for values at or beyond the usual limits of such assays.
The target of the next assay is HLA-B*15:01. The assay can be described thus: IEDB peptide-MHC binding, purified MHC/direct/fluorescence; filed as Kd, often an IC50 or EC50 that approximates it; ≥ and ≤ were set here for values at or beyond the usual limits of such assays.
The target of assay [4] is HLA-A*01:01. Nature of the assay: IEDB peptide-MHC binding, purified MHC/competitive/radioactivity; filed as Kd, often an IC50 or EC50 that approximates it; ≥ and ≤ were set here for values at or beyond the usual limits of such assays.
The target of assay [5] is HLA-B*40:01. Described as above.
For assay [6], the target named is HLA-B*40:01. The assay can be described thus: IEDB peptide-MHC binding, purified MHC/direct/fluorescence; filed as Kd, often an IC50 or EC50 that approximates it; ≥ and ≤ were set here for values at or beyond the usual limits of such assays.
The target of the next assay is HLA-A*02:02. The assay can be described thus: IEDB peptide-MHC binding, purified MHC/competitive/radioactivity; filed as Kd, often an IC50 or EC50 that approximates it; ≥ and ≤ were set here for values at or beyond the usual limits of such assays. The conditions noted are these: source organism: Vaccinia virus Copenhagen.
The target of a further assay is HLA-A*02:06. The description is as above. The conditions noted are these: source organism: Vaccinia virus Copenhagen.
For another assay, the target named is HLA-A*02:03. The description is as above. The conditions noted are these: source organism: Vaccinia virus Copenhagen.
Another assay concerns the target HLA-A*31:01. The assay can be described thus: IEDB peptide-MHC binding, purified MHC/direct/fluorescence; filed as Kd, often an IC50 or EC50 that approximates it; ≥ and ≤ were set here for values at or beyond the usual limits of such assays. The conditions noted are these: source organism: Escherichia coli.
The target in a further assay is HLA-B*58:01. The assay is described as above.
Another assay deals with HLA-A*11:01. The assay is described as above.
The mark [7] stands for this setting: source organism: Zaire ebolavirus.
Where [8] appears, read: source organism: Escherichia coli O157:H7.
Where [9] appears, read: source organism: Shigella dysenteriae.
The mark [10] stands for this setting: source organism: Mycobacterium tuberculosis F11.
Setting [11] is: source organism: Vaccinia virus WR.
The mark [12] stands for this setting: source organism: Dengue virus 1 Brazil/97-11/1997.
The mark [13] stands for this setting: source organism: Sudan ebolavirus.
The mark [14] stands for this setting: source organism: Dengue virus 2 Jamaica/1409/1983.
Where [15] appears, read: source organism: Dengue virus 3 Martinique/1243/1999.
Setting [16] is: source organism: Dengue virus 4 Philippines/H241/1956.
Setting [17] is: source organism: Mycobacterium tuberculosis.
Setting [18] is: source organism: Yersinia pestis.
[19] abbreviates: source organism: Dengue virus 1 Singapore/S275/1990.
[20] abbreviates: source organism: Vaccinia virus Copenhagen.
The mark [21] stands for this setting: source organism: Human immunodeficiency virus 1.
[22] abbreviates: source organism: Human herpesvirus 4 strain B95-8.

This passage reports IC50 and Kd results from the Immune Epitope Database (IEDB).

In the assay with HLA-A*02:01 [1] (setting [7]), AGPPKAENT returned a concentration for half-maximal inhibition (IC50) of 66600 nM.

As for ALEKGIKDV, the Kd was 6000 nM with HLA-A*02:01 [2] (setting [8]) and at least 20000 nM with HLA-A*69:01 (setting [8]).

For the sequence ALELGRKTL, the Kd is 8000 nM with HLA-A*02:01 [2] (setting [9]) and at least 20000 nM in the assay with HLA-A*69:01 (setting [9]).

Sequence APEFVTAAA returned a Kd in the assay with HLA-B*07:02 (setting [10]) of 933 nM.

Turning to ATALILVSF, in the assay with HLA-A*32:01 (setting [11]), the Kd turned out to be 1.42 nM.

In the case of AVNPGGNIY, the figures for the Kd with HLA-A*01:01 [3] (setting [10]) and with HLA-A*03:01 (setting [10]) were 3000 nM and at least 20000 nM, respectively.

Turning to DEDHAHWTEA, the equilibrium dissociation constant (Kd) in the assay with HLA-A*32:01 (setting [12]) came to 390 nM.

As for DFLLRRWGG, in the assay with HLA-A*02:01 [1] (setting [13]), the IC50 is 56400 nM.

For EDMLAVWNRV, the Kd with HLA-A*32:01 (setting [14]) stood at 219 nM.

Take ELIMKDGRKL: in the assay with HLA-A*26:01 (setting [15]), the Kd turned out to be 12500 nM.

For ELTGYGTVTM, the Kd with HLA-A*26:01 (setting [14]) came to 8470 nM.

Consider EVEDYGFGIF, for which, in the assay with HLA-A*26:01 (setting [12]), the Kd stood at 1610 nM.

Regarding EVEDYGFGMF, the Kd in the assay with HLA-A*26:01 (setting [16]) came to 72.1 nM.

As for EVPFCSHHF, the Kd with HLA-A*26:01 (setting [16]) stood at 6630 nM.

Regarding FLQGAKWYL, in the assay with HLA-A*69:01 (setting [17]), the Kd worked out at 465 nM.

As to FLQSPPIRE, the IC50 with HLA-A*02:01 [1] (setting [13]) came to 38000 nM.

In the case of FMHSAAPIT, the Kd with HLA-B*15:01 (setting [18]) turned out to be 1920 nM; in the assay with HLA-A*02:01 [2] (setting [18]), 216 nM; with HLA-A*69:01 (setting [18]), 7660 nM.

Turning to GLENGLNYI, the Kd in the assay with HLA-A*02:01 [2] (source organism: Homo sapiens) came to 825 nM.

In the assay with HLA-A*02:01 [1] (setting [13]), ILGPDCCIE came in with an IC50 of 28100 nM.

With ILLKIVTQF, in the assay with HLA-A*32:01 (source organism: Dengue virus 4 Dominica/814669/1981), the dissociation constant (Kd) was 412 nM.

In turn, KKILMNFHQ gave an IC50 with HLA-A*02:01 [1] (setting [7]) of 63400 nM.

Sequence KLGEFYNQMM gave an IC50 with HLA-A*02:01 [1] (source organism: Influenza B virus) of 2820 nM.

As to KMLNLNYIV, the Kd in the assay with HLA-A*32:01 (setting [11]) is 640 nM.

With KQRGGYAQF, in the assay with HLA-B*15:01 (source organism: Mycobacterium tuberculosis variant bovis BCG str. Pasteur 1173P2), the dissociation constant (Kd) worked out at 323 nM.

In the case of KTDWLPMTV, in the assay with HLA-A*01:01 [4] (source organism: Dengue virus 3 Sri Lanka/1266/2000), the dissociation constant Kd is 56.5 nM.

KTHVSSWEEV: the Kd with HLA-A*32:01 (setting [12]) is 6690 nM.

On to LAWIPYFGP, for which, in the assay with HLA-A*02:01 [1] (setting [7]), the IC50 was determined as 17800 nM.

For the sequence LENDMKFTV, the Kd in the assay with HLA-B*40:01 [5] (setting [19]) amounted to 124 nM.

In the case of LENIIVPGL, the Kd with HLA-B*40:01 [6] (setting [17]) amounted to 71 nM.

Take LETKGVERL: the Kd with HLA-B*40:01 [5] (setting [15]) came to 21.7 nM.

LIAGIILLI: the Kd with HLA-A*32:01 (setting [20]) is at least 77800 nM; with HLA-A*02:02 it was 0.173 nM; with HLA-A*02:06, 8220 nM; with HLA-A*02:03, 38.5 nM.

Regarding LTDYGALTL, the Kd with HLA-A*01:01 [4] (setting [12]) was determined as 201 nM.

In the case of LVCGLRQLA, the half-inhibitory concentration (IC50) with HLA-A*02:01 [1] (setting [13]) is 7660 nM.

In the case of LVQYIKFIF, the equilibrium dissociation constant (Kd) with HLA-A*32:01 (setting [11]) is 19.8 nM.

Take MESEGIFSP: the Kd with HLA-B*40:01 [5] (setting [19]) came out at 2270 nM.

The sequence MHNQDGLIC came in with an IC50 in the assay with HLA-A*02:01 [1] (setting [7]) of 2340 nM.

In the assay with HLA-A*02:01 [1] (setting [13]), MHNQNALVC came in with an IC50 of at least 92000 nM.

For MLYGIAQKI, the Kd with HLA-A*32:01 (setting [20]) turned out to be 12.4 nM.

Consider MNEENRFVT, for which the half-maximal inhibitory concentration (IC50) in the assay with HLA-A*02:01 [1] (setting [7]) worked out at 41100 nM.

For MPKPSLFVR, the Kd in the assay with HLA-A*31:01 is 204 nM; with HLA-A*03:01 (source organism: Escherichia coli), at least 20000 nM.

As to NSSKVSQNY, the Kd with HLA-B*15:01 (setting [21]) turned out to be 301 nM; with HLA-B*58:01 (setting [21]), 742 nM; with HLA-A*01:01 [3] (setting [21]), 41.2 nM.

For the sequence NYADRRWCFD, in the assay with HLA-A*32:01 (setting [14]), the equilibrium dissociation constant (Kd) is at least 52300 nM.

QEHDCLQIV yielded a Kd with HLA-B*40:01 [6] (source organism: Mammarenavirus juninense) of 1470 nM.

QLVCKDHLA: in the assay with HLA-A*02:01 [1] (setting [13]), the IC50 is 19600 nM.

Consider RTIYNETSI, for which the Kd with HLA-A*32:01 (setting [11]) is 1.03 nM.

On to RTMFLFVFR, for which the Kd in the assay with HLA-A*11:01 (setting [17]) is 94.6 nM.

With SALNHTKKW, the Kd turned out to be 17100 nM with HLA-A*11:01 (source organism: SARS-CoV1) and 350 nM in the assay with HLA-B*58:01 (source organism: SARS-CoV1).

Regarding SAVPTEWFPT, in the assay with HLA-A*32:01 (setting [16]), the dissociation constant (Kd) is at least 34000 nM.

On to SQSTIPETI, for which, in the assay with HLA-A*32:01 (setting [14]), the dissociation constant Kd was at least 24100 nM.

In turn, STEGRRVGV returned a concentration for half-maximal inhibition (IC50) in the assay with HLA-A*02:01 [1] (setting [13]) of at least 210000 nM.

As to STTRGALIF, the Kd with HLA-A*32:01 (setting [11]) is 296 nM.

With SVVETLEQM, in the assay with HLA-A*26:01 (setting [12]), the Kd was found to be 138 nM.

TLARGFPFV gave a Kd with HLA-A*69:01 (source organism: West Nile virus) of at most 1 nM.

Consider TLEDDRERL, for which the IC50 with HLA-A*02:01 [1] (source organism: Variola virus) worked out at 29900 nM.

With TTERGGKAY, in the assay with HLA-A*01:01 [4] (setting [16]), the Kd was 917 nM.

On to TTHTSGPSV, for which the IC50 with HLA-A*02:01 [1] (setting [13]) amounted to 17800 nM.

As to TTTGEIGAI, the Kd with HLA-A*26:01 (setting [15]) turned out to be 5260 nM.

Regarding VESWEEIPYL, the equilibrium dissociation constant (Kd) with HLA-B*40:01 [5] (source organism: Dengue virus 2 Peru/IQT2913/1996) turned out to be 52.8 nM.

Regarding VETPIRNEW, in the assay with HLA-B*40:01 [6] (source organism: Influenza A virus (A/Moscow/346/2003(H3N2))), the Kd was at least 20000 nM.

Consider VMCSISLTY, for which the Kd in the assay with HLA-A*32:01 (setting [11]) stood at 10.8 nM.

As to VPAPAGPIV, the values for the Kd with HLA-B*07:02 (setting [22]) and with HLA-A*69:01 (setting [22]) were 23.4 nM and 442 nM, respectively.

In the assay with HLA-A*02:01 [1] (setting [7]), VRLHPLART yielded an IC50 of at least 331000 nM.

As to VTLNISSKF, in the assay with HLA-A*32:01 (setting [11]), the Kd was 10.6 nM.

With VTNVIIIVI, the Kd with HLA-A*32:01 (setting [11]) is 13.7 nM.

In the case of VTYLALIATF, the results for the Kd with HLA-A*26:01 (setting [15]) and with HLA-A*01:01 [4] (setting [15]) were at least 21200 nM and at least 50800 nM, respectively.

Take YIMYNILPI: the Kd with HLA-A*32:01 (setting [11]) amounted to 39.4 nM.

In the case of YLFSQNYSF, in the assay with HLA-A*32:01 (setting [11]), the Kd turned out to be 1.39 nM.

What is called IC50 is the point on the concentration scale where inhibition reaches its midpoint. A high value points to a need for much substance. For orientation: Kd means the free concentration of one partner at which half of the binding sites on the other are occupied at equilibrium, for simple one-to-one binding.
